Measurements taken from the supplement of paper PMC12042874.
± gives the uncertainty stated by the source.

Test: amyloid nucleation score (Sup35N fusion, yeast selection) (log enrichment); library NNK3; higher = more nucleation; inactive = no reads after selection
Outline: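 Libraries of peptides of 20 random codons fused to Sup35N were expressed in psi-negative yeast and induced 24 hours with 100 μM copper sulfate. Selection was 7 days at 30°C on medium lacking adenine and uracil, and plasmid inserts were Illumina-sequenced before and after selection. Nucleation score is the DiMSum log enrichment of output over input reads, centred on the mode score of non-aggregating sequences, and sequences with under 100 input reads were left out.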

Row | Substance | amyloid nucleation score
1 | LVEVDDASNIDCEAAYCKWY | inactive
2 | RANVQDMTKISYVFTYTWYV | inactive
3 | QVCYG | inactive
4 | SIDLNGKG | inactive
5 | FLANPWCIVARLCSNHVIVH | inactive
6 | RMYRGWLVPDAARSKGCRVM | inactive
7 | YLIEYTSSNKPMAPLSDDTQ | inactive
8 | IISSSL | inactive
9 | YYDYLRWLLEHIHFCTWGPY | inactive
10 | VTHLPTDIGMC | 0.894 ± 0.12
11 | DTLPHAVKLIEKM | inactive
12 | CKTIKVVLAALGFCYPQYSL | inactive
13 | WPLRGRSMLQWLSCHIQWAG | inactive
14 | VLLPAGRIR | inactive
15 | IILQNFPNRKYMCLGAKMAS | inactive
16 | GCFSSSESTIWGGAVDAKVS | inactive
17 | PSSLVIINNYSYC | 3.09 ± 0.073
18 | KTRSAMRDLVVSFWYF | 1.65 ± 0.075
19 | GLCKS | inactive
20 | TVIMNLYAPP | 2.51 ± 0.053
21 | TSMMSWQSSHCHVYWRTDWV | 0.457 ± 0.4
22 | PDTLRRNRVSRFTFAKRCGL | -0.769 ± 0.98
23 | GLKLCCV | inactive
24 | GRKVCLSRPTRFNSFLWMVY | inactive
25 | ILRFGHPWDRRSK | inactive
26 | CMRSESCVVPRNNKFFLLSG | -0.361 ± 0.96
27 | VNWHNIKVTEDVKVG | inactive

Row | Substance | amyloid nucleation score
28 | FKVNLDVP | -0.263 ± 1.4
29 | VIWLGRRCTFLHKPTSRGQW | 0.021 ± 0.6
30 | LWVRKDERGEYI | inactive
31 | FRYVVHTESYTIESVEVIR | 1.22 ± 0.094
32 | EMLSIENGRFTKCKLGECVR | -0.137 ± 0.52
33 | MWLRFKDFVVRWN | inactive
34 | RNCLIYGHNDILGISRLSDF | inactive
35 | QTAIIANPSVGGWLSNSHVR | inactive
36 | ADFDDHDYLVMCDWWINMHS | inactive
37 | YWRELDSIQCNLFRGQPFNL | inactive
38 | VSSRECMLRPLPDTKTRLAA | inactive
39 | FYCLHSMLKMGEDVRAMNLD | inactive
40 | KANFNVSVGKSVHATCLLTL | inactive
41 | IKAVSYTVSVSPPCFSSKSH | 0.402 ± 0.18
42 | GAHWNASSHICGRKD | inactive
43 | NHMLCCTCDFHYCVRGWKSF | 0.64 ± 0.33
44 | CEMVCSTVIPIEVTSWLVMV | inactive
45 | IFNMSEYNKLECTLTLY | inactive
46 | MGGLIFVSLKAWSIILHYNK | inactive
47 | TCMHC | inactive
48 | VSEMCIMSCTHIVGDCSWIR | inactive
49 | DHHLEEYRL | inactive
50 | LVVTTPLRRGKDLDSMRYTC | inactive
51 | CVGSVPVMTKMVGDMGMASR | inactive
52 | YINFISWNVCVSCLFWLDSV | 2.09 ± 0.054
53 | CFTVVPGSVMF | inactive
54 | RVFNIEYMLECAFFRTIRD | inactive

Row | Substance | amyloid nucleation score
55 | KYITHLFFFILSERYCWFPM | -0.341 ± 0.56
56 | LNRVRSS | -0.108 ± 0.7
57 | FYGECKSVSGNCLTMNGRYT | -0.561 ± 0.59
58 | DLHVLSVK | inactive
59 | LICAW | inactive
60 | IYIFGFQTVCNSLIGGLSIA | inactive
61 | GSPQVSAAGQF | inactive
62 | MMSDLILV | -0.43 ± 1
63 | YMVHDHFKSNFRMCGCGYFN | inactive
64 | RVAQTAVRVSWALDRFYLWD | inactive
65 | RRRGNKAFHPLQ | inactive
66 | EVCLGVSGRHGANSVVIDWT | inactive
67 | ELGHSKSTMFNVYYVVWSRC | inactive
68 | SFTAYVASLA | -0.151 ± 1.1
69 | SRRFTLPGGSMFTEVLM | inactive
70 | MYSNVDQFNI | -0.257 ± 0.47
71 | STVTDTYRLDTWTTWETDRG | 1.98 ± 0.095
72 | SVYFFQGTL | 1.29 ± 0.084
73 | YIDFVPLVYTRKFDGEETCI | inactive
74 | SDFRTRTNIQYLQYKNNSSP | inactive
75 | HGTAGLPK | 0.807 ± 0.14
76 | FVVYL | inactive
77 | PCKDLQTYWFENWCQRFGR | inactive
78 | IDYAYGNVTNNPQKP | inactive
79 | EGFYTFALGRICGFWSYNFC | 1.23 ± 0.14
80 | KWKVAKVGDWQAAPTLGSHR | inactive
